In patent US20250320281A1:

Columns and labels:
Assay in all cases: cell-based or functional assay
[1] = biological target: HIV-1 Env of isolate MG RM-D-012 (HIV-1)
[2] = biological target: HIV-1 envelope glycoprotein (Env) of isolate MGRM-C-013 (HIV-1)
[3] = biological target: HIV-1 Env of isolate THR0.18 (subtype B) (HIV-1)
[4] = biological target: HIV-1 Env of isolate MG RM-D-021 (HIV-1)
[5] = biological target: HIV-1 Env of isolate MGRM-A-006 (HIV-1)
[6] = biological target: HIV-1 Env of isolate 6535.3 (HIV-1)
[7] = biological target: HIV-1 Env of isolate MG RM-D-020 (HIV-1)
[8] = biological target: HIV-1 Env of isolate MGRM-AG-002 (subtype AG) (HIV-1)
[9] = biological target: HIV-1 Env of isolate JRFL (subtype B) (HIV-1)
[10] = biological target: HIV-1 Env of isolate MGRM-AE-007 (subtype AE) (HIV-1)
[11] = biological target: HIV-1 Env of isolate 92WR026 (HIV-1)
[12] = biological target: HIV-1 MGRM-C-026 Env (pseudovirus, clade C) (HIV-1)
[13] = biological target: HIV-1 APV13 Env (pseudovirus) (HIV-1)
[14] = biological target: HIV-1 envelope glycoprotein (Env) of isolate 92UG031, clade A (HIV-1)
[15] = biological target: HIV-1 Env of isolate MGRM-D-028 (clade D pseudovirus) (HIV-1)
[16] = biological target: HIV-1 Env of isolate 93TH305, clade B, on pseudovirus (HIV-1)
[17] = biological target: HIV-1 Env of pseudovirus MGRM-AE-006 (clade CRF01_AE) (HIV-1)
[18] = biological target: HIV-1 Env of pseudovirus MGRM-AE-008 (clade CRF01_AE) (HIV-1)
[19] = biological target: HIV-1 Env of pseudovirus MGRM-Chronic-B-024 (HIV-1)
[20] = biological target: HIV-1 Env of isolate MGRM-D-002 (clade D pseudovirus) (HIV-1)
[21] = biological target: HIV-1 Env of isolate LAVI_C3 (HIV-1)
[22] = biological target: HIV-1 Env of isolate VLGCA1 (clade A pseudovirus) (HIV-1)
[23] = biological target: HIV-1 Env of isolate MGRM-G-015 (HIV-1)
[24] = biological target: HIV-1 Env of isolate PVO.4 (Acute), clade B, on pseudovirus (HIV-1)
[25] = biological target: HIV-1 Env of isolate LAVIC_18 (HIV-1)
[26] = biological target: HIV-1 envelope glycoprotein (Env) of isolate MGRM-A-013, clade A (HIV-1)
[27] = biological target: HIV-1 Env of isolate 98IN022 (clade C) (HIV-1 isolate 98IN022)
[28] = biological target: HIV-1 Env of isolate MGRM-C-027 (HIV-1)
[29] = biological target: HIV-1 Env of isolate MGRM-F1-018 (HIV-1)
[30] = biological target: HIV-1 Env of isolate MGRM-F1-020 (HIV-1)
[31] = biological target: HIV-1 Env of isolate MGRM-F1-016 (HIV-1)
[32] = biological target: HIV-1 Env of isolate MGRM-F1-014 (HIV-1)
[33] = biological target: HIV-1 Env of isolate MGRM-G-013 (HIV-1)
[34] = biological target: HIV-1 Env of isolate MGRM-AE-006 (HIV-1)
[35] = biological target: HIV-1 Env of isolate 92UG001 (pseudovirus) (HIV-1)
[36] = biological target: HIV-1 Env of isolate MGRM-D-003 (pseudovirus) (HIV-1)
[37] = biological target: HIV-1 Env of isolate MGRM-F1-010 (pseudovirus) (HIV-1)
[38] = biological target: HIV-1 Env of isolate PVO.4 (subtype B pseudovirus) (HIV-1)
[39] = biological target: HIV-1 Env of isolate MGRM-AG-012 (HIV-1)
[40] = biological target: HIV-1 Env of isolate MGRM-D-019 (pseudovirus) (HIV-1)

Sequence of 4995_E20 (PGT-142) (antibody) (VH): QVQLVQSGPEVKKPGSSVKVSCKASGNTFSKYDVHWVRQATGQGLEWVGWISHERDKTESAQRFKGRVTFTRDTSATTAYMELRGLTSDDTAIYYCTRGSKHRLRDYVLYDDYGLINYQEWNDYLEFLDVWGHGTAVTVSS
Sequence of 4995_E20 (PGT-142) (antibody) (VL): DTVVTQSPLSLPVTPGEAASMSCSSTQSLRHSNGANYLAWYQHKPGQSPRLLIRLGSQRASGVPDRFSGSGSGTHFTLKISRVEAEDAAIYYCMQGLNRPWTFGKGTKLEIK
Sequence of 5345_I01 (PGT-137) (antibody) (VH): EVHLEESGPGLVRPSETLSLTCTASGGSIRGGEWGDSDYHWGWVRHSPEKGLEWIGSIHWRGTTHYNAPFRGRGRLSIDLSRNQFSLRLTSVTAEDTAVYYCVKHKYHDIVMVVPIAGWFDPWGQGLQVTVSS
Sequence of 5345_I01 (PGT-137) (antibody) (VL): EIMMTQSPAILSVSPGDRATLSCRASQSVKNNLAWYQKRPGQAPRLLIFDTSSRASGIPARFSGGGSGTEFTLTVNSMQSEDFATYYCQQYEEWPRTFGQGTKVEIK
Sequence of 4970_K22 (PGT-144) (antibody) (VH): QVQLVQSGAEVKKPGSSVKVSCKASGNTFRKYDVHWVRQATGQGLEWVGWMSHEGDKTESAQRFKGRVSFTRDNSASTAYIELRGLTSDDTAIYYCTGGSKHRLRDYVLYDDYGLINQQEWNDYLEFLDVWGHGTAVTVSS
Sequence of 4970_K22 (PGT-144) (antibody) (VL): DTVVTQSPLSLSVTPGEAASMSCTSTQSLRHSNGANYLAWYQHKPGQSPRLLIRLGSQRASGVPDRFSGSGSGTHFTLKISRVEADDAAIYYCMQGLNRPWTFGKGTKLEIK
Sequence of 5329_C19 (PGT-136) (antibody) (VH): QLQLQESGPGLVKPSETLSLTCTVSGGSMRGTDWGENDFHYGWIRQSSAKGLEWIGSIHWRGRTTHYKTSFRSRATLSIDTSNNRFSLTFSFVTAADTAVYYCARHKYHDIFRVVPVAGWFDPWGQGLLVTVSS
Sequence of 5329_C19 (PGT-136) (antibody) (VL): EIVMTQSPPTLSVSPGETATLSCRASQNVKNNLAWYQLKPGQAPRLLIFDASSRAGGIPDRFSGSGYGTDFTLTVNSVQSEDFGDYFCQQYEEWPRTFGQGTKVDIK
Sequence of 4993_K13 (PGT-141) (antibody) (VH): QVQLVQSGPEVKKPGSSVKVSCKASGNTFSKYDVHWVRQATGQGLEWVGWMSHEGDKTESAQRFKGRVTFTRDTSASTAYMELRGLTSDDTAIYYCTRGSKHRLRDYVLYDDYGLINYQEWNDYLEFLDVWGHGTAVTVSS
Sequence of 4980_N08 (PGT-143) (antibody) (VH): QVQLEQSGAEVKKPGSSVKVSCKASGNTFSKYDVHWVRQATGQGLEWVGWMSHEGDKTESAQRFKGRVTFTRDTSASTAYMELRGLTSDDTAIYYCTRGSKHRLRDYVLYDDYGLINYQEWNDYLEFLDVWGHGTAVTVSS
Sequence of 4980_N08 (PGT-143) (antibody) (VL): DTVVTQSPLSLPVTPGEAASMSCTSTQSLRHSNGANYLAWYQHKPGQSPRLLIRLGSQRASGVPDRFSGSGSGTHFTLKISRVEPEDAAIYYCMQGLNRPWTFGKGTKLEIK

Substance | IC50 (µg/mL), pseudovirus neutralization [1] | IC50 (µg/mL), pseudovirus neutralization [2] | IC50 neutralization [3] | IC50 (µg/mL), pseudovirus neutralization [4] | IC50 [5] | neutralization IC50 [6] | IC50 (µg/mL), pseudovirus neutralization [7] | IC50 (µg/mL), pseudovirus neutralization [8] | IC50 neutralization [9] | IC50 (µg/mL), pseudovirus neutralization [10] | IC50 [11] | IC50 neutralization [12] | IC50 (µg/mL), pseudovirus neutralization [23] | IC50 (neutralizing activity, pseudovirus) [13] | IC50 (µg/mL), pseudovirus neutralization [33] | further results
5345_I01 (PGT-137) (antibody) | > 50 µg/mL | > 50 µg/mL | > 50 µg/mL | > 50 µg/mL | > 50 µg/mL | > 50 µg/mL | > 50 µg/mL | > 50 µg/mL | > 50 µg/mL | > 50 µg/mL | 0.092 µg/mL |  |  |  |  | 
5147_N06 (PGT-130) (antibody) | > 50 µg/mL | > 50 µg/mL | > 50 µg/mL | 0.156 µg/mL | > 50 µg/mL | 0.031 µg/mL | 24.7 µg/mL | > 50 µg/mL | 0.046 µg/mL | 0.083 µg/mL | 0.037 µg/mL | 0.0173 µg/mL |  |  |  | Neutralization by PGT-130, IC50 [13]: 0.0345 µg/mL; Neutralization by PGT-130, IC80 [13]: 0.573 µg/mL; Neutralization by PGT-130, IC90 [13]: 2.88 µg/mL; Neutralization by PGT-130, IC95 [13]: > 10 µg/mL; neutralization IC50 (pseudovirus) [13]: 0.0345 µg/mL
1496_C09 (PG9) (TCN-109) (antibody) |  |  |  |  |  |  |  |  |  |  |  | 0.113 µg/mL | 6.6 µg/mL |  |  | IC50 (µg/ml), pseudovirus neutralization [14]: 3.08 µg/mL; IC50 (µg/ml), pseudovirus neutralization [15]: 4.39 µg/mL; IC50 (µg/ml), pseudovirus neutralization [16]: 2.08 µg/mL; IC50 [17]: 0.05 µg/mL; IC50 [18]: 10.6 µg/mL; IC50 (µg/mL), pseudovirus neutralization [6]: 1.05 µg/mL; IC50 (µg/ml), pseudovirus neutralization [19]: 0.18 µg/mL; IC50 (µg/ml), pseudovirus neutralization [20]: 0.027 µg/mL; IC50 [21]: 1.45 µg/mL; IC50 (µg/ml), pseudovirus neutralization [22]: 0.07 µg/mL; IC50 (µg/ml), pseudovirus neutralization [24]: 4.01 µg/mL; IC50 [25]: 0.1 µg/mL; IC50 (µg/ml), pseudovirus neutralization [26]: 0.16 µg/mL; IC50 (µg/ml), pseudovirus neutralization [27]: 0.006 µg/mL
5343_B08 (PGT-135) (antibody) | > 50 µg/mL | > 50 µg/mL | > 50 µg/mL | > 50 µg/mL | > 50 µg/mL | > 50 µg/mL | > 50 µg/mL | > 50 µg/mL | > 50 µg/mL | > 50 µg/mL | 0.068 µg/mL | 0.0123 µg/mL |  | 0.545 µg/mL |  | 
VRC01 (antibody) |  |  |  |  |  |  |  |  |  |  |  |  | 0.548 µg/mL |  | 0.553 µg/mL | IC50 (µg/mL), pseudovirus neutralization [28]: 0.125 µg/mL; IC50 [29]: 0.032 µg/mL; IC50 [1]: 0.216 µg/mL; IC50 [4]: 33.4 µg/mL; IC50 [30]: 1.89 µg/mL; IC50 [31]: 0.517 µg/mL; IC50 [32]: 0.056 µg/mL; IC50 [7]: 0.192 µg/mL
4877_D15 (PGT-122) (antibody) |  |  |  |  |  |  |  |  |  |  |  | 0.0089 µg/mL |  |  |  | neutralization IC50 [28]: 0.039 µg/mL; IC50 [34]: > 50 µg/mL; IC50 (µg/mL), pseudovirus neutralization [29]: 0.563 µg/mL; IC50, pseudovirus neutralization [35]: > 50 µg/mL; IC50, pseudovirus neutralization [36]: > 50 µg/mL; IC50, pseudovirus neutralization [37]: 0.024 µg/mL; IC50 (µg/mL), pseudovirus neutralization [30]: 0.321 µg/mL; IC50 (µg/mL), pseudovirus neutralization [31]: 4.81 µg/mL; IC50 (µg/mL), pseudovirus neutralization [32]: 0.195 µg/mL; IC50 (µg/mL), pseudovirus neutralization [38]: 0.689 µg/mL; neutralization IC50 (pseudovirus) [13]: 0.992 µg/mL; IC50 [39]: > 50 µg/mL; IC50, pseudovirus neutralization [40]: > 50 µg/mL
4995_E20 (PGT-142) (antibody) |  |  |  |  |  |  |  |  |  |  |  |  | > 50 µg/mL | > 10 µg/mL | > 50 µg/mL | 
4980_N08 (PGT-143) (antibody) |  |  |  |  |  |  |  |  |  |  |  |  | > 50 µg/mL | > 10 µg/mL | > 50 µg/mL | 
PGV04 (antibody) |  |  |  |  |  |  |  |  |  |  |  |  | 0.333 µg/mL |  | 0.168 µg/mL | IC50 (µg/mL), pseudovirus neutralization [6]: 0.757 µg/mL
4993_K13 (PGT-141) (antibody) |  |  |  |  |  |  |  |  |  |  |  |  | > 50 µg/mL | > 10 µg/mL | > 50 µg/mL | 
4970_K22 (PGT-144) (antibody) |  |  |  |  |  |  |  |  |  |  |  |  | > 50 µg/mL | > 10 µg/mL | > 50 µg/mL | 
5123_A06 (PGT-125) (antibody) |  |  |  |  |  |  |  |  |  |  |  | 0.0106 µg/mL |  |  |  | neutralization IC50 [28]: > 50 µg/mL; IC50 [34]: 0.009 µg/mL; IC50 (µg/mL), pseudovirus neutralization [29]: > 50 µg/mL; IC50, pseudovirus neutralization [35]: > 50 µg/mL; IC50, pseudovirus neutralization [36]: 0.065 µg/mL; IC50, pseudovirus neutralization [37]: > 50 µg/mL; IC50 (µg/mL), pseudovirus neutralization [30]: > 50 µg/mL; IC50 (µg/mL), pseudovirus neutralization [31]: > 50 µg/mL; IC50 (µg/mL), pseudovirus neutralization [32]: > 50 µg/mL; IC50 (µg/mL), pseudovirus neutralization [38]: 0.042 µg/mL; neutralization IC50 (pseudovirus) [13]: 0.0128 µg/mL; IC50 [39]: > 50 µg/mL; IC50, pseudovirus neutralization [40]: 0.049 µg/mL
5329_C19 (PGT-136) (antibody) | > 50 µg/mL | > 50 µg/mL | > 50 µg/mL | > 50 µg/mL | > 50 µg/mL | > 50 µg/mL | > 50 µg/mL | > 50 µg/mL | > 50 µg/mL | > 50 µg/mL | > 50 µg/mL | 0.0065 µg/mL |  | > 10 µg/mL |  | 
5136_H01 (PGT-131) (antibody) | > 50 µg/mL | > 50 µg/mL | > 50 µg/mL | 0.106 µg/mL | > 50 µg/mL | 0.056 µg/mL | > 50 µg/mL | > 50 µg/mL | 0.454 µg/mL | 0.026 µg/mL | 0.041 µg/mL |  |  |  |  | 
5114_A19 (PGT-128) (antibody) | > 50 µg/mL | > 50 µg/mL | > 50 µg/mL | 0.014 µg/mL | > 50 µg/mL | 0.011 µg/mL | 0.011 µg/mL | 4.99 µg/mL | 0.007 µg/mL | > 50 µg/mL | 0.01 µg/mL |  |  |  |  | 
4838_L06 (PGT-121) (antibody) |  |  |  |  |  |  |  |  |  |  |  |  |  |  |  | neutralization IC50 [28]: 0.011 µg/mL; IC50 [34]: > 50 µg/mL; IC50 (µg/mL), pseudovirus neutralization [29]: 0.04 µg/mL; IC50, pseudovirus neutralization [35]: > 50 µg/mL; IC50, pseudovirus neutralization [36]: 10.7 µg/mL; IC50, pseudovirus neutralization [37]: 0.016 µg/mL; IC50 (µg/mL), pseudovirus neutralization [30]: 0.167 µg/mL; IC50 (µg/mL), pseudovirus neutralization [31]: 0.931 µg/mL; IC50 (µg/mL), pseudovirus neutralization [38]: 0.137 µg/mL; IC50 [39]: > 50 µg/mL; IC50, pseudovirus neutralization [40]: > 50 µg/mL
5145_B14 (PGT-127) (antibody) |  |  |  |  |  |  |  |  |  |  |  |  |  |  |  | neutralization IC50 [28]: > 50 µg/mL; IC50 [34]: > 50 µg/mL; IC50 (µg/mL), pseudovirus neutralization [29]: 3.59 µg/mL; IC50, pseudovirus neutralization [35]: > 50 µg/mL; IC50, pseudovirus neutralization [36]: 0.029 µg/mL; IC50, pseudovirus neutralization [37]: > 50 µg/mL; IC50 (µg/mL), pseudovirus neutralization [30]: > 50 µg/mL; IC50 (µg/mL), pseudovirus neutralization [31]: > 50 µg/mL; IC50 (µg/mL), pseudovirus neutralization [32]: > 50 µg/mL; IC50 (µg/mL), pseudovirus neutralization [38]: 0.164 µg/mL; IC50 [39]: > 50 µg/mL; IC50, pseudovirus neutralization [40]: > 50 µg/mL
